Among the data in patent US20090181041A1 (published 2009) are Kd values, retold here.

For experiment [1], the target named is T1, Recombinant human macrophage mannose receptor (MMR) (human, UniProt P22897 19-1383, limits assumed).
T1 construct: Bought; Amine-coupled to a CM5 chip at 13745 RU; also called CD206
T1 sequence (looked up): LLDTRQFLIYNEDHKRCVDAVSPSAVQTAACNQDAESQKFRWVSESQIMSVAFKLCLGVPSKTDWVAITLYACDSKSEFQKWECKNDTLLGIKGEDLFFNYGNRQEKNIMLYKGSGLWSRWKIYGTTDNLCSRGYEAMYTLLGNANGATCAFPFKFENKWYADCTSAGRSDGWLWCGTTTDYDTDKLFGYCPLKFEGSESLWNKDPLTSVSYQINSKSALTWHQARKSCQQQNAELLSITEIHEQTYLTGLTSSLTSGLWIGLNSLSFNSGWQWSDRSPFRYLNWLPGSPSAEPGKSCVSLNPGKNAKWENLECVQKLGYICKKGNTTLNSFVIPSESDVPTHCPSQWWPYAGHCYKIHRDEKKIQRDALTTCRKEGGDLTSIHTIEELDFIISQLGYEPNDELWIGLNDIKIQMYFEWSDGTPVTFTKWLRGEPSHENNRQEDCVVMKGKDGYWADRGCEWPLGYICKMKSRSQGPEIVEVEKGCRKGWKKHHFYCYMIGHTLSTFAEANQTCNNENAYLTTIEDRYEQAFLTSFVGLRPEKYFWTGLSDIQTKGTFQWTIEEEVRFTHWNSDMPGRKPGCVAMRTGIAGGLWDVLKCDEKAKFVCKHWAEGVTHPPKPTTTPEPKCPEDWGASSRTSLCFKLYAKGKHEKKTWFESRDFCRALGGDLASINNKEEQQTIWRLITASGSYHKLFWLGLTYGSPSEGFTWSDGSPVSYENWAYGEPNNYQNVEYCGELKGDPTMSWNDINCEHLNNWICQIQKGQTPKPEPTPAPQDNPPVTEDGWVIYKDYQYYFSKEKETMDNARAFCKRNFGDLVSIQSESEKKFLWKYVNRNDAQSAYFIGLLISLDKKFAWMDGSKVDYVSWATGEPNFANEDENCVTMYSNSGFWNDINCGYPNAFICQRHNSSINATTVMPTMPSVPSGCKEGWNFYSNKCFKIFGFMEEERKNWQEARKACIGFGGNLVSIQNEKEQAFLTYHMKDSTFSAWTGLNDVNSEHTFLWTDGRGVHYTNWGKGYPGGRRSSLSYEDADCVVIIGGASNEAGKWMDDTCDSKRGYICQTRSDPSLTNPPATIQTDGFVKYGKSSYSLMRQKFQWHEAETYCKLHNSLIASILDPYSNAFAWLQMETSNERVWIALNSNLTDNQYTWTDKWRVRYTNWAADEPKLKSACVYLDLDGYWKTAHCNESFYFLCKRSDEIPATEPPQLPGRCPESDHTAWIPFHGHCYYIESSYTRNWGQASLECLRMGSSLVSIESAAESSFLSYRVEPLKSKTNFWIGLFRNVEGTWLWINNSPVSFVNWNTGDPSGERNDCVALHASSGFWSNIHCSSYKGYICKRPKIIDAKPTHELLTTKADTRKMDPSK
Kind of experiment: SPR (Biacore 2000), receptor amine-coupled on CM5 chip, fusion protein as analyte, apparent Kd from steady state. As for the experimental part: (§1) Immunoglobulin fusion proteins of PSGL-1 and AGP produced in wild type Pichia and purified, as described in Example 1, were used in experiments to assess their ability to bind to recombinant human macrophage mannose receptor (MMR), DC-SIGN/Fc chimera and mannan binding lectin (MBL) Using Biacore (real time surface plasmon resonance spectroscopy) analysis as follows.
(§2) Analyses were performed using a Biacore 2000 instrument (Biacore, GE Healthcare, Uppsala, Sweden). Recombinant human macrophage mannose receptor (MMR), DC-SIGN/Fc chimera and mannan binding lectin (MBL) were purchased from R & D Systems and immobilized on a CM5 sensor chip using amine coupling chemistry according to the manufacturer's instructions. Briefly, activation of the surface was made with EDC/NHS 1:1, 10 μL/min for 7 minutes and the receptors were dissolved in sodium acetate buffer pH 4.5 at concentrations of 15 μg/ml for MMR, 10 μg/ml for DC-SIGN and 90 μg/ml for MBL and immobilized at 10 μl/min for 7 minutes. Deactivation of excess of reactive groups was made with ethanolamine, 20 μl/min for 7 minutes. […] Data were calculated using BIAevaluation 4.1 software (Biacore, GE Healthcare) and the apparent equilibrium dissociation constants (Kd) were calculated by plotting steady state binding levels against the analyte concentrations for several concentrations simultaneously. […]

A further experiment has as its target T2, DC-SIGN/Fc chimera (human, UniProt Q9NNX6 62-404).
T2 construct: Amine-coupled to a CM5 chip at 8312 RU; also called CD209; dendritic cell-specific ICAM-3-grabbing nonintegrin; Fc part of the bought chimera not given
T2 sequence (looked up): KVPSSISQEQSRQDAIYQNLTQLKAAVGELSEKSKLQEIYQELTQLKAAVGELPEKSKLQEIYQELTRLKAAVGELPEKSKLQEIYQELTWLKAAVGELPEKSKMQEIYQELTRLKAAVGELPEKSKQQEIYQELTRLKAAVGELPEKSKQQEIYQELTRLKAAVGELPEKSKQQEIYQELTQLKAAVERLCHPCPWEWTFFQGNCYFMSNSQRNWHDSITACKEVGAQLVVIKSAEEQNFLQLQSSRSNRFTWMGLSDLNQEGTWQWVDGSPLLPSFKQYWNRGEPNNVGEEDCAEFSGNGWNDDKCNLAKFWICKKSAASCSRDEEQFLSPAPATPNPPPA
The experiment is described as above. As for the experimental part:
as §1, §2

B1: PSGL-1/mIgG2b fusion protein produced in Pichia pastoris (Fc fusion, UniProt Q14242 18-320, looked up)
chain: LQLWDTWADEAEKALGPLLARDRRQATEYEYLDYDFLPETEPPEMLRNSTDTTPLTGPGTPESTTVEPAARRSTGLDAGGAVTELTTELANMGNLSTDSAAMEIQTTQPAATEAQTTQPVPTEAQTTPLAATEAQTTRLTATEAQTTPLAATEAQTTPPAATEAQTTQPTGLEAQTTAPAAMEAQTTAPAAMEAQTTPPAAMEAQTTQTTAMEAQTTAPEATEAQTTQPTATEAQTTPLAAMEALSTEPSATEALSMEPTTKRGLFIPFSVSSVTHKGIPMAASNLSVNYPVGAPDHISVKQC
modifications: O-linked mannose glycans (Hex2-9) and N-linked glycans from expression in P. pastoris; sites not given
notes: extracellular domain; Homodimeric chimeric glycoprotein, about 250-300 kDa, secreted from P. pastoris GS115 by the pPICZalpha vector and purified on MabSelect SuRe; also called PSGL-1/mlgG2b; Pp/PSGL1-mIgG2b; not shown: Fc part of mouse IgG2b
On to B1, for which the Kd stood at 76.7 nM in experiment [1] and 8.82 nM with DC-SIGN/Fc chimera.
